Experimental data as given in patent US20200199241A1 (Chugai, published 2020).
Changes are numbered by the printed parent chain. Names may count otherwise.

T1: FcγRIIb (human, UniProt P31994 43-217, limits assumed)
T1 construct: also called FcgRIIb; FcγIIB
T1 sequence: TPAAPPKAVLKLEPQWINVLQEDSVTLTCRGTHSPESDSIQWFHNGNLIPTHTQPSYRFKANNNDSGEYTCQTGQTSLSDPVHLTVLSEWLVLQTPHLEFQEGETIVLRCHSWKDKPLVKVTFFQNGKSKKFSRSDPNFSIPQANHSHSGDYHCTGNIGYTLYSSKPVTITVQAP

T2: FcγRIIa type R (human, UniProt P12318 36-217)
T2 construct: also called FcγRIIaR; FcgRIIaR
T2 chain: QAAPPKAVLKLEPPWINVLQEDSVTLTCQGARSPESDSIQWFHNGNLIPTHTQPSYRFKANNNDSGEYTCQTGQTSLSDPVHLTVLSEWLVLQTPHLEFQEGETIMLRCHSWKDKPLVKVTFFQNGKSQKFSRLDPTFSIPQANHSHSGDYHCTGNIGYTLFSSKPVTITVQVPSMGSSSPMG

T3: FcγRIIa type H (human, UniProt P12318 36-217)
T3 construct: also called FcγRIIaH; FcγRIIH
T3 sequence: T2 chain with R133H

T4: human FcγRIIa(H) (human, UniProt P12318 36-217)
T4 construct: also called FcgRIIaH; hFcgRIIa(H)
T4 sequence: T2 chain with R133H

T5: human FcγRIIa(R) (human, UniProt P12318 36-217)
T5 construct: also called FcgRIIaR; hFcgRIIa(R)
T5 chain: T2 chain

T6: human FcγRIIb (human, UniProt P31994 43-217, limits assumed)
T6 construct: also called FcgRIIb; hFcgRIIb
T6 sequence: T1 sequence

B1: IL6R-B3/IL6R-L (antibody, human IgG1)
heavy: not shown
light: DIQMTQSPSSLSASVGDRVTITCRASQDISSYLNWYQQKPGKAPKLLIYYTSRLHSGVPSRFSGSGSGTDFTFTISSLQPEDIATYYCQQGNTLPYTFGQGTKVEIK
notes: IgG1; IL6R-G1d with K439E (EU); also called parent polypeptide; copies: 2 + 2
B2: IL6R-BF648/IL6R-L (antibody, human IgG1)
heavy: not shown
light: B1 light
notes: IgG1; Fc variant of IL6R-B3; control (= 100) of the relative values; copies: 2 + 2
B3: IL6R-BP103/IL6R-L (antibody, human IgG1)
heavy: QVQLQESGPGLVKPSETLSLTCAVSGHSISHDHAWSWVRQPPGEGLEWIGFISYSGITNYNPSLQGRVTISRDNSKNTLYLQMNSLRAEDTAVYYCARSLARTTAMDYWGEGTLVTVSSASTKGPSVFPLAPSSKSTSGGTAALGCLVKDYFPEPVTVSWNSGALTSGVHTFPAVLQSSGLYSLSSVVTVPSSSLGTQTYICNVNHKPSNTKVDKKVEPKSCDKTHTCPPCPAPELLGGDSVFLFPPKPKDTLMISRTPEVTCVVVDVVHEDPEVKFNWYVDGVEVHNAKTKPREEQYNSTYRVVSVLTVLHQDWLNGKEYKCKVSNKALPAPIEKTISKAKGQPREPQVYTLPPSRDELTKNQVSLTCLVKGFYPSDIAVEWESNGQPENNYKTTPPVLDSDGSFFLYSKLTVDKSRWQQGNVFSCSVMHEALHNHYTQESLSLSP
light: B1 light
notes: IgG1; Fc variant of IL6R-B3; copies: 2 + 2
B4: IL6R-BP116/IL6R-L (antibody, human IgG1)
heavy: B3 heavy with V269S, K328T
light: B1 light
notes: as for B3
B5: IL6R-BP118/IL6R-L (antibody, human IgG1)
heavy: B3 heavy with V269S, K328S
light: B1 light
notes: as for B3
B6: IL6R-BP119/IL6R-L (antibody, human IgG1)
heavy: B3 heavy with V269S, K328M
light: B1 light
notes: as for B3
B7: IL6R-G1d/IL6R-L (antibody, human IgG1)
heavy: not shown
light: B1 light
notes: IgG1 (G1d constant region) antibody to human IL-6 receptor; also called IgG1 (IL6R-G1d); copies: 2 + 2
B8: VH3-IgG2-F890/L(WT)-CK (antibody)
heavy: QVQLQESGPGLVKPSETLSLTCAVSGHSISHDHAWSWVRQPPGEGLEWIGFISYSGITNYNPSLQGRVTISRDNSKNTLYLQMNSLRAEDTAVYYCARSLARTTAMDYWGEGTLVTVSSASTKGPSVFPLAPCSRSTSESTAALGCLVKDYFPEPVTVSWNSGALTSGVHTFPAVLQSSGLYSLSSVVTVPSSNFGTQTYTCNVDHKPSNTKVDKTVERKCCVECPPCPAPPVAGPSVFLFPPKPKDTLYISRTPEVTCVVVDVSHEDPEVQFNWYVDGVEVHNAKTKPREEQFNSTFRVVSVLTVVHQDWLNGKEYKCKVSNKGLPAPIEKTISKTKGQPREPQVYTLPPSREEMTKNQVSLTCLVKGFYPSDIAVEWESNGQPENNYKTTPPMLDSDGSFFLYSKLTVDKSRWQQGNVFSCSVMHEALHYHVTQKSLSLSP
light: not shown
notes: M252Y/N434Y/Y436V in VH3-IgG2; copies: 2 + 2
B9: VH3-IgG2/L(WT)-CK (antibody)
heavy: B8 heavy with Y250M, Y432N, V434Y
light: not shown
notes: copies: 2 + 2

The binders below were run against T7, FcγRIIIa type V (human, UniProt P08637 17-208, limits assumed) (assay: SPR (Biacore), FcγR over captured antibody).
T7 construct: also called FcγRIIIaV; FcgRIIIaV
T7 sequence (P08637 other isoform, or with tags, fused parts or gaps limits assumed): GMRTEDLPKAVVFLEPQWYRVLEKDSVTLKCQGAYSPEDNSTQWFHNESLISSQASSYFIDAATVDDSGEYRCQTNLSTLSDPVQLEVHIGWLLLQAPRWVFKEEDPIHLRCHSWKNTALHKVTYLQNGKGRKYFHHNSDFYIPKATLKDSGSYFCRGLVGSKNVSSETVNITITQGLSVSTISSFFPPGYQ

Point of comparison: B5, Kd 56 µM. Against it:
- B1 — 170-fold lower, 0.33 µM
- B2 — within 1.5-fold, 71 µM
- B3 — 2-fold higher, 110 µM
- B4 — within 1.5-fold, 72 µM
- B6 — the same, 56 µM
- B7 — 160-fold lower, 0.35 µM

These binders were tested against T8, FcγRIa (human, UniProt P12314 16-292, limits assumed) (assay: SPR (Biacore), FcγR over captured antibody).
T8 construct: also called FcgRIa; CD64
T8 sequence (P12314 16-292 limits assumed): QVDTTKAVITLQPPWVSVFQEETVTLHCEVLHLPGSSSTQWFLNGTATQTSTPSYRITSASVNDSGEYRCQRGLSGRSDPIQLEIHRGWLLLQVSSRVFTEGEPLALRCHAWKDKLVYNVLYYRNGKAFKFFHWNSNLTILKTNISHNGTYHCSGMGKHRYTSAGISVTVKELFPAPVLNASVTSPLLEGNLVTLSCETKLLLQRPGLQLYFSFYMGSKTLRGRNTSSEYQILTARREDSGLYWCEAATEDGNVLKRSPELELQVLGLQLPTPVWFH

Point of comparison: B6, Kd 0.007 µM. Against it:
- B1 — 17-fold lower, 0.00042 µM
- B2 — 1.6-fold higher, 0.011 µM
- B3 — 5-fold higher, 0.035 µM
- B4 — 2.7-fold lower, 0.0026 µM
- B5 — 1.7-fold higher, 0.012 µM
- B7 — 22-fold lower, 0.00032 µM

These binders were tested against T1, FcγRIIb (assay: SPR (Biacore), FcγR over captured antibody).

Point of comparison: B2, Kd 1.2 µM. Against it:
- B1 — 2.6-fold higher, 3.1 µM
- B3 — the same, 1.2 µM
- B4 — within 1.5-fold, 1.1 µM
- B5 — the same, 1.2 µM
- B6 — within 1.5-fold, 1.1 µM
- B7 — 2.2-fold higher, 2.6 µM

Biological target: T2, FcγRIIa type R
Test: SPR (Biacore), FcγR over captured antibody

Point of comparison: B4, Kd 15 µM. Against it:
- B1 — 14-fold lower, 1.1 µM
- B2 — the same, 15 µM
- B3 — within 1.5-fold, 11 µM
- B5 — the same, 15 µM
- B6 — 1.5-fold lower, 9.9 µM
- B7 — 15-fold lower, 1 µM

The binders below were run against T3, FcγRIIa type H (assay: SPR (Biacore), FcγR over captured antibody).

Point of comparison: B2, Kd 40 µM. Against it:
- B1 — 52-fold lower, 0.77 µM
- B3 — 2.2-fold higher, 88 µM
- B4 — within 1.5-fold, 54 µM
- B5 — within 1.5-fold, 46 µM
- B6 — within 1.5-fold, 45 µM
- B7 — 60-fold lower, 0.67 µM

The binders below were run against T1, FcγRIIb (assay: SPR (Biacore), KD of IL6R-B3/IL6R-L divided by KD of the variant).
Text: Furthermore, KD(IIaR)/KD(IIb) and KD(IIaH)/KD(IIb) in the table respectively represent the value obtained by dividing the KD value of each variant for FcγRIIaR by the KD value of each variant for FcγRIIb, and the value obtained by dividing the KD value of each variant for FcγRIIaH by the KD value of each variant for FcγRIIb. KD(IIb) of the parent polypeptide/KD(IIb) of the altered polypeptide refers to the value obtained by dividing the KD value of the parent polypeptide for FcγRIIb by the KD value of each variant for FcγRIIb.

Point of comparison: B1, “KD(IIb) of the parent polypeptide/KD(IIb) of altered polypeptide” value 1 fold. Against it:
- B2 — higher, 2.6 fold
- B3 — higher, 2.5 fold
- B4 — higher, 2.8 fold
- B5 — higher, 2.7 fold
- B6 — higher, 2.7 fold
- B7 — higher, 1.2 fold

Each binder was assayed against T1, FcγRIIb (assay: SPR (Biacore); KD for FcγRIIaH divided by KD for FcγRIIb of the same antibody).
Text: Furthermore, KD(IIaR)/KD(IIb) and KD(IIaH)/KD(IIb) in the table respectively represent the value obtained by dividing the KD value of each variant for FcγRIIaR by the KD value of each variant for FcγRIIb, and the value obtained by dividing the KD value of each variant for FcγRIIaH by the KD value of each variant for FcγRIIb.

Point of comparison: B7, “KD(IIaH)/KD(IIb)” value 0.3. Against it:
- B1 — lower, 0.2
- B2 — higher, 33.9
- B3 — higher, 71.5
- B4 — higher, 48.2
- B5 — higher, 40
- B6 — higher, 39.5

The binders below were run against T7, FcγRIIIa type V (assay: SPR (Biacore), bound amount, IL6R-BF648/IL6R-L = 100).
Experimental: (§1) According to the following method, relative binding activities were calculated for the results of analyzing interactions with the respective FcγRs.

Point of comparison: B7, relative binding activity 3350 % of control. Against it:
- B1 — lower, 3260 % of control
- B2 — lower, 100 % of control

Each binder was assayed against T8, FcγRIa in the same assay as above.
Experimental: as §1

Point of comparison: B7, relative binding activity 140 % of control. Against it:
- B1 — higher, 145 % of control
- B2 — lower, 100 % of control

The binders below were run against T1, FcγRIIb in the same assay as above.
Experimental: as §1

Point of comparison: B2, relative binding activity 100 % of control. Against it:
- B1 — lower, 58 % of control
- B7 — lower, 62 % of control

These binders were tested against T3, FcγRIIa type H in the same assay as above.
Experimental: as §1

Point of comparison: B1, relative binding activity 1600 % of control. Against it:
- B2 — lower, 100 % of control
- B7 — higher, 1670 % of control

Each binder was assayed against T1, FcγRIIb (assay: SPR (Biacore); KD for FcγRIIaR divided by KD for FcγRIIb of the same antibody).

Point of comparison: B5, “KD(IIaR)/KD(IIb)” value 13.2. Against it:
- B1 — lower, 0.3
- B2 — lower, 13
- B3 — lower, 9
- B4 — higher, 13.3
- B6 — lower, 8.7
- B7 — lower, 0.4

What follows are binders tested against T4, human FcγRIIa(H) (assay: SPR, pH 7.4, antibody captured by Protein L).
Experimental: (§2) Binding activity between the antibodies and human FcγRIa, FcγRIIa(H), FcγRIIa(R), FcγRIIb and FcγRIIIa(F) (hereinafter referred to as human FcγRs) was evaluated using the BIACORE™ T100 or T200 surface plasmon resonance system (GE Healthcare). The antibodies being tested were captured by Protein L (ACTIGEN® protein (Alltech)) that was immobilized in suitable amounts on the CM4 Sensor Chip (GE Healthcare) by amine coupling. Next, the diluted human FcγRs and a running buffer used as a blank were injected to allow interaction with the antibodies captured on the sensor chip. A buffer consisting of 20 mmol/L N-(2-acetamido)-2-aminoethanesulfonic acid (ACES), 150 mmol/L NaCl and 0.05% (w/v) polysorbate 20 (Tween 20®) (pH 7.4) was used for the running buffer, and this buffer was also used to dilute the human FcγRs. 10 mmol/L glycine-HCl (pH 1.5) was used to regenerate the sensor chip. All measurements were carried out at 25° C.

Point of comparison: B9, binding amount 266 RU. Against it:
- B8 — lower, 204 RU

What follows are binders tested against T9, human FcγRIIIa(V) (human, UniProt P08637 17-208, limits assumed) (assay: SPR, pH 7.4, antibody captured by Protein L).
T9 construct: also called hFcgRIIIa(V); FcγRIIIa allotype V158
T9 sequence (P08637 other isoform, or with tags, fused parts or gaps limits assumed): as the sequence (P08637 other isoform, or with tags, fused parts or gaps limits assumed) above
Experimental: as §2

Point of comparison: B8, binding amount 28.1 RU. Against it:
- B9 — higher, 50.1 RU

Each binder was assayed against T10, human FcγRIa (human, UniProt P12314 16-292, limits assumed) (assay: SPR, pH 7.4, antibody captured by Protein L).
T10 construct: also called FcgRIa; hFcgRIa
T10 sequence (P12314 16-292 limits assumed): as the sequence (P12314 16-292 limits assumed) above
Experimental: as §2

Point of comparison: B8, binding amount 19.7 RU. Against it:
- B9 — higher, 38.6 RU

Biological target: T5, human FcγRIIa(R)
Test: SPR, pH 7.4, antibody captured by Protein L
Experimental: as §2

Point of comparison: B8, binding amount 120 RU. Against it:
- B9 — higher, 188 RU

The binders below were run against T6, human FcγRIIb (assay: SPR, pH 7.4, antibody captured by Protein L).
Experimental: as §2

Point of comparison: B9, binding amount 55.5 RU. Against it:
- B8 — lower, 31.9 RU
